Patent US20130065278A1 (SPIBER TECHNOLOGIES, published 2013)

T1: NT2-REP4-CT
T1 construct: also called NTNT-REP4-CT; HisNTNT4RepCT
T1 chain: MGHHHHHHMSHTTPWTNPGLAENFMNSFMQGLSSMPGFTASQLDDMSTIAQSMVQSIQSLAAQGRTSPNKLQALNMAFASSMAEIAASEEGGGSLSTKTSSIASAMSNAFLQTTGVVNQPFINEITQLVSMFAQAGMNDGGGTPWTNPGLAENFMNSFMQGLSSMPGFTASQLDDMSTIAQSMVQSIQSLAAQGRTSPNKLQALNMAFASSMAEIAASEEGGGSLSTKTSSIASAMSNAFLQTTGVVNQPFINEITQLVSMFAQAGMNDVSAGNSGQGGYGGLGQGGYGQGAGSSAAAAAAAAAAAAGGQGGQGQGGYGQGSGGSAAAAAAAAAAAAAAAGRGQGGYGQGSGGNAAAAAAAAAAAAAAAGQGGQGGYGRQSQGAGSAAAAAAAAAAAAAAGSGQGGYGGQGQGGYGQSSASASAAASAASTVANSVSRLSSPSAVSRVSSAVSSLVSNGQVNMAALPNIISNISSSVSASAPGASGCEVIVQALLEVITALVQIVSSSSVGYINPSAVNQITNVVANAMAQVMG

T2: NT-REP4-CT
T2 construct: also called NT4RepCT; NT-REP4-CT fiber
T2 chain: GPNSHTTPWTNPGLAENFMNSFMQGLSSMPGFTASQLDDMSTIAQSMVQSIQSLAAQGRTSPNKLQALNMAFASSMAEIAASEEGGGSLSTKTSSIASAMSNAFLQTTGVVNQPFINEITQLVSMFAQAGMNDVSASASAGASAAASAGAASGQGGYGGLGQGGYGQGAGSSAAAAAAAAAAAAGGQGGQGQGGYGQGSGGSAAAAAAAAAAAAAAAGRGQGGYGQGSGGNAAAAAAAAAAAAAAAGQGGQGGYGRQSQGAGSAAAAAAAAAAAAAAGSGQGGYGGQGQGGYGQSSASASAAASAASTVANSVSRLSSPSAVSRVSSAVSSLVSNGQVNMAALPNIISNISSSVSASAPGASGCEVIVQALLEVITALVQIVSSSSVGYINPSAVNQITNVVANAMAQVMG


Assays:
NT2-REP4-CT = biological target: T1, NT2-REP4-CT; assay: capture of soluble protein on fiber at pH 6, release at pH 7, SDS-PAGE; 300 mM NaCl decreased capture
Method: (§1) Fibers (˜0.5 cm long, ˜50 μg) of NT-REP₄-CT (SEQ ID NO 20), NT₂-REP₄-CT (SEQ ID NO 23) and REPO-CT (SEQ ID NO 2, control) were submerged in 100 μl solution of 5 mg/ml soluble NTHis (SEQ ID NO 32) or NT₂-Brichos (SEQ ID NO 34) at pH 8 for 10 minutes. The pH was decreased by addition of 400 μl sodium phosphate buffer (NaP) to pH 6 and incubated for 10 minutes to allow assembly of soluble NT to the fiber. The fibers were transferred to 500 μl of NaP at pH 6, and washed twice. Finally, the fibers were transferred to 500 μl of NaP at pH 7, and incubated 10 minutes to allow release of soluble NT. The same was done in the presence of 300 mM NaCl in all pH 6 NaP buffers. Samples from the different solutions were analysed on SDS-PAGE.

NT-REP4-CT = biological target: T2, NT-REP4-CT; assay: as above
Method: as §1

| Binder | binding result (NT2-REP4-CT) | binding result (NT-REP4-CT) |
| --- | --- | --- |
| NTHis (other, also called soluble NTHis; NT protein) MSHTTPWTNPGLAENFMNSFMQGLSSMPGFTASQLDDMSTIAQSMVQSIQSLAAQGRTSPNKLQALNMAFASSMAEIAASEEGGGSLSTKTSSIASAMSNAFLQTTGVVNQPFINEITQLVSMFAQAGMNDVSASASAGASAAASAGAAALEHHHHHH | binds | binds |
| NT2-Brichos (other, also called NT-NT-Brichos; HisNTNTBrichos) MGHHHHHHMSHTTPWTNPGLAENFMNSFMQGLSSMPGFTASQLDDMSTIAQSMVQSIQSLAAQGRTSPNKLQALNMAFASSMAEIAASEEGGGSLSTKTSSIASAMSNAFLQTTGVVNQPFINEITQLVSMFAQAGMNDGGGTPWTNPGLAENFMNSFMQGLSSMPGFTASQLDDMSTIAQSMVQSIQSLAAQGRTSPNKLQALNMAFASSMAEIAASEEGGGSLSTKTSSIASAMSNAFLQTTGVVNQPFINEITQLVSMFAQAGMNDVSAGNSEHLVTTATFSIGSTGLVVYDYQQLLIAYKPAPGTCCYIMKIAPESIPSLEALTRKVHNFQMECSLQAKPAVPTSKLGQAEGRDAGSAPSGGDPAFLGMAVSTLCGEVPLYYI | binds | binds |
